{
  "source": "paper PMC11941745",
  "origin": "cited, not measured here",
  "key": {"[1]": {"biological_target": "flotillin-1 (Homo sapiens) (UniProt O75955)", "sequence (O75955 whole entry)": "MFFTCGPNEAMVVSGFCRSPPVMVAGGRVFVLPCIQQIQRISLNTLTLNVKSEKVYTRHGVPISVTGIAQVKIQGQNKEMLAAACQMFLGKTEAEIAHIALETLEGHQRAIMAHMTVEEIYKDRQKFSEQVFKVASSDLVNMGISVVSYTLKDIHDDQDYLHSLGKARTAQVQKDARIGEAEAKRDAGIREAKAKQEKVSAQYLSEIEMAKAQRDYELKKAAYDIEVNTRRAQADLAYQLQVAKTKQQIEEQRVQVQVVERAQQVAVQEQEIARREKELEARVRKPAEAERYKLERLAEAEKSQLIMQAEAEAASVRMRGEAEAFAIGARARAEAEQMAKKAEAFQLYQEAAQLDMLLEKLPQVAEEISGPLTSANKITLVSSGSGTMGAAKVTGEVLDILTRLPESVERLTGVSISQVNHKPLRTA", "experiment": "SPR"}, "[2]": {"biological_target": "flotillin-2 (Homo sapiens) (UniProt Q14254)", "sequence (Q14254 2-428)": "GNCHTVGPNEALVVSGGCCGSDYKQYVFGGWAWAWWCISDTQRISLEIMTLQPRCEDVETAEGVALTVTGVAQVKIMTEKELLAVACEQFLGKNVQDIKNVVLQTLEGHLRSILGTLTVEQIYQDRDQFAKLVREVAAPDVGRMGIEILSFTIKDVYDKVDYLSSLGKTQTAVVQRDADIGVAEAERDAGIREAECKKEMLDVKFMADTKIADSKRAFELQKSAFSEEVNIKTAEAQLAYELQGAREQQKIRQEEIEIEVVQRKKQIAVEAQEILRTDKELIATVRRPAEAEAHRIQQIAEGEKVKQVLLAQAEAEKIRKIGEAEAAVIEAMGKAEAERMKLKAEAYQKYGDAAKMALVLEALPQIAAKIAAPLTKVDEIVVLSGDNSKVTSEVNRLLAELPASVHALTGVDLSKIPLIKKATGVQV", "experiment": "SPR"}},
  "data": [
    {"substance": "MPP1 (from UniProt Q00013)", "values": [
      {"measurement": "Kd", "setting": "[1]", "result": 18.1, "unit": "nM"},
      {"measurement": "Kd", "setting": "[2]", "result": 24.8, "unit": "nM"}
    ]}
  ]
}
